In the test the test system is human anti-PLA2R autoantibodies. Briefly: Western blotting of PLA2R fragments with human anti-PLA2R autoantibodies. Format: binding. For orientation: Immunoblotting shows a protein as a band on a membrane.

B1: mouse PLA2R: recombinant mouse PLA2R (R&D) (protein)
chain: QDLTHIQEPSLEWRDKGIFIIQSESLKTCIQAGKSVLTLENCKQPNEHMLWKWVSDDHLFNVGGSGCLGLNISALEQPLKLYECDSTLISLRWHCDRKMIEGPLQYKVQVKSDNTVVARKQIHRWIAYTSSGGDICEHPSRDLYTLKGNAHGMPCVFPFQFKGHWHHDCIREGQKEHLLWCATTSRYEEDEKWGFCPDPTSMKVFCDATWQRNGSSRICYQFNLLSSLSWNQAHSSCLMQGGALLSIADEDEEDFIRKHLSKVVKEVWIGLNQLDEKAGWQWSDGTPLSYLNWSQEITPGPFVEHHCGTLEVVSAAWRSRDCESTLPYICKRDLNHTAQGILEKDSWKYHATHCDPDWTPFNRKCYKLKKDRKSWLGALHSCQSNDSVLMDVASLAEVEFLVSLLRDENASETWIGLSSNKIPVSFEWSSGSSVIFTNWYPLEPRILPNRRQLCVSAEESDGRWKVKDCKERLFYICKKAGQVPADEQSGCPAGWERHGRFCYKIDTVLRSFEEASSGYYCSPALLTITSRFEQAFITSLISSVAEKDSYFWIALQDQNNTGEYTWKTVGQREPVQYTYWNTRQPSNRGGCVVVRGGSSLGRWEVKDCSDFKAMSLCKTPVKIWEKTELEERWPFHPCYMDWESATGLASCFKVFHSEKVLMKRSWREAEAFCEEFGAHLASFAHIEEENFVNELLHSKFNWTQERQFWIGFNRRNPLNAGSWAWSDGSPVVSSFLDNAYFEEDAKNCAVYKANKTLLPSNCASKHEWICRIPRDVRPKFPDWYQYDAPWLFYQNAEYLFHTHPAEWATFEFVCGWLRSDFLTIYSAQEQEFIHSKIKGLTKYGVKWWIGLEEGGARDQIQWSNGSPVIFQNWDKGREERVDSQRKRCVFISSITGLWGTENCSVPLPSICKRVKIWVIEKEKPPTQPGTCPKGWLYFNYKCFLVTIPKDPRELKTWTGAQEFCVAKGGTLVSIKSELEQAFITMNLFGQTTNVWIGLQSTNHEKWVNGKPLVYSNWSPSDIINIPSYNTTEFQKHIPLCALMSSNPNFHFTGKWYFDDCGKEGYGFVCEKMQDTLEHHVNVSDTSAIPSTLEYGNRTYKIIRGNMTWYAAGKSCRMHRAELASIPDAFHQAFLTVLLSRLGHTHWIGLSTTDNGQTFDWSDGTKSPFTYWKDEESAFLGDCAFADTNGRWHSTACESFLQGAICHVVTETKAFEHPGLCSETSVPWIKFKGNCYSFSTVLDSRSFEDAHEFCKSEGSNLLAIRDAAENSFLLEELLAFGSSVQMVWLNAQFDNNNKTLRWFDGTPTEQSNWGLRKPDMDHLKPHPCVVLRIPEGIWHFTPCEDKKGFICKMEAGIPAVTAQPEKGLSHS
For the molecule B1, the “recognition by human anti-PLA2R autoantibodies” value was “fail to react”.

For the origin of these results see patent US20170137490A1, “PEPTIDES, AND METHODS AND APPARATUS UTILISING SAME” (The University of Manchester, priority 2014, published 2017).
